Test [1] has as its target SARS-CoV-2 receptor-binding domain (SARS-CoV-2, UniProt P0DTC2 319-541). The test can be described thus: direct-binding MagPlex assay, biotinylated sdAb on RBD-coated microspheres.
For test [2], the target named is SARS-CoV-2 nucleocapsid protein (recombinant) (SARS-CoV-2, UniProt P0DTC9 1-419). The test can be described thus: SPR (ProteOn XPR36), N immobilised on chip, sdAb in flow, 25 C.

One may read the Kd as the concentration at which binding is half-saturated. The term koff denotes the rate constant with which the complex falls apart. The kon is the second-order rate constant of association.

B1: sdAb clone E10 (VHH)
VHH: DVQLQASGGGLVQAGGSLRLSCAASARTFYTMGWFRQVLGKDREFVGAIRWGVYATTRYADSVKGRFSISRDDATNTVALQMNSLKPEDTAVYYCAARAGPLGFELSATSSAEYDYWGQGTQVTVSS
As for B1, the binding result in test [1] was “no binding”. In addition, in test [2], the Kd is 14 nM, the koff came to 0.00095 s⁻¹ and the kon was found to be 69000 M⁻¹ s⁻¹.

B2: sdAb clone A9 (VHH)
VHH: EVQLQASGGGLVQAGESLRLSCVVSGGAFRIMDMGWFRQVPGKQREVVGVISSGGYTNYADSVKGRFTISRDNAKRTVYLHMNSLKPEDTAVYYCNIIPKSDQGAVNTWGKGTLVSVSS
For the molecule B2, the binding result in test [1] is “no binding”.

B3: sdAb clone B6 (VHH)
VHH: EVQLQASGGGLVQAGDSLRLSCVAVSGRTISTFAMGWFRQAPGKEREFVATINWSGSSARYADPVEGRFTISRDDAKNTVYLEMSSLKPGDSAVYYCASGRYLGGITSYSQGDFAPWGQGTQVTVSS
notes: also called Bt-B6
As for B3, the binding result in test [1] is recorded as “no binding”. Besides, in test [2], the Kd was 1.6 nM, the koff was 0.0003 s⁻¹ and the kon came out at 190000 M⁻¹ s⁻¹.
